Source: patent US20250034266A1 (ZAI LAB SHANGHAI, published 2025)
Substitutions are numbered along the chain they refer to. In names and notes the source's numbering stands. Read-outs that look alike come from different tables or passages of the source.

Assays:
human CCR8 [1] = molecular target: T1, human CCR8 (human, UniProt P51685 1-355); test: cell-based or functional assay
T1 sequence (P51685 whole entry): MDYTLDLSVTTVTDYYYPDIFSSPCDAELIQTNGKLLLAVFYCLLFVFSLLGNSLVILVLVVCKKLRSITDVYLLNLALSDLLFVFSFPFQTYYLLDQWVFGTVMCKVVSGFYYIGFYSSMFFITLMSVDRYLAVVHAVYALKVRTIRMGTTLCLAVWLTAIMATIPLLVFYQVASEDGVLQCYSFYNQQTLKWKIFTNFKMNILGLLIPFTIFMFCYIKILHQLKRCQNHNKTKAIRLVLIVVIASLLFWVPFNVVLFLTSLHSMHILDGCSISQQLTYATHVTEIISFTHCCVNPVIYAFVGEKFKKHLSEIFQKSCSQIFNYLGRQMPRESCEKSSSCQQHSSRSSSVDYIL

human CCR8 [2] = molecular target: T1, human CCR8; test: cell-based or functional assay; remark: listed apart in the source
human CCR8 [3] = molecular target: T2, human CCR8 (human, UniProt P51685 1-355); test: cell-based or functional assay; remark: listed apart in the source
T2 sequence (P51685 whole entry): as above

human CCR8 [4] = molecular target: T2, human CCR8; test: FACS on HEK293-human CCR8 cells
Method: (§1) Binding affinities of NG site removed antibodies were determined on human CCR8 and cynomolgus CCR8 overexpression cells. Briefly, CFSE labeled HEK293-human CCR8 cells or CFSE labeled HEK293-cynomolgus CCR8 cells were mixed with HEK293 cells. The mixed ratio was 1:1. A total of 5×10⁴ mixed cells for each well were seeded in 96-well plates and washed by FACS buffer (DPBS containing 1% FBS) once. Cells were incubated by serial diluted purified hybridoma antibodies for 1 hour at 4° C. Antibodies were prepared with 3-fold serial dilution ranging from 100 nM to 0.0017 nM or from 25.3165 nM to 0.0004 nM in FACS buffer. […] After primary antibody incubation, cells were washed by FACS buffer for three times. Then, cells were stained with secondary antibody (Alexa Flu647-conj gated rabbit anti-mouse IgG, Jackson ImmunoResearch, #315606046) at 1:600 dilution in FACS buffer, incubated for 0.5 hour at 4° C. […] FlowJo software was used for analysis. Data was plotted as the logarithm of antibody concentration versus mean fluorescence signals. EC₅₀ values were calculated in GraphPad Prism 8 (GraphPad Software) using a log (agonist) vs. response-Variable slope (4 parameters) curve fit.

cynomolgus CCR8 [5] = molecular target: T3, cynomolgus CCR8 (cynomolgus, UniProt G7NYJ2 1-355); test: FACS on HEK293-cynomolgus CCR8 cells
T3 construct: whole, on cells
Method: as §1

human CCR8 [6] = molecular target: T2, human CCR8; test: FACS, competition with AF647-human CCL1 on CHO-K1-human CCR8 cells
Method: (§2) Antibodies were prepared with 3-fold serial dilution ranging from 200 nM to 0.01 nM in FACS buffer. Then, cells were washed by FACS buffer for three times after incubation. […] FlowJo software was used for analysis. Data was plotted as the logarithm of antibody concentration versus mean fluorescence signals. IC₅₀ values were determined in GraphPad Prism 8 (GraphPad Software) using a log(agonist) vs. response-Variable slope (4 parameters) curve fit.

human CCR8 [7] = molecular target: T2, human CCR8; test: FACS, competition with AF647-human CCL1 on HEK293-human CCR8 cells
Method: as §2

human CCR8 [8] = molecular target: T2, human CCR8; test: FACS, competition with AF647-human CCL1 on CHO-K1-human CCR8 cells; remark: listed apart in the source
Method: Blocking curves were generated to rank the blocking activities of PTM sites removed antibodies. Briefly, a total of 5×10⁴ CHO-K1-human CCR8 cells for each well were seeded in 96-well plate. Cells were incubated by series diluted purified hybridoma antibodies and 4 nM AF647 labeled human CCL1 (Almac, #CAF-07) for 1 hour at 4° C. Antibodies were prepared with 3-fold serial dilution ranging from 100 nM to 0.0051 nM in FACS buffer. Then, cells were washed by FACS buffer for three times after incubation. […] FlowJo software was used for analysis. Data was plotted as the logarithm of antibody concentration versus mean fluorescence signals. IC₅₀ values were determined in GraphPad Prism 8 (GraphPad Software) using a log(agonist) vs. response-Variable slope (4 parameters) curve fit.

human CCR8 [9] = molecular target: T2, human CCR8; test: cell-based or functional assay; remark: listed apart in the source
human CCR8 [10] = molecular target: T2, human CCR8; test: FACS on HEK293-human CCR8 cells; remark: listed apart in the source
Method: (§3) A total of 5×10⁴ cells for each well were seeded in 96-well plates and washed with FACS buffer (DPBD containing 1.5% FBS) for once. Antibodies were prepared with 3-fold serial dilution ranging from 100 nM to 0.0017 nM in FACS buffer. Cells were incubated with 50 μL of diluted antibodies at 4° C. for 1 hour. […] After primary antibody incubation, cells were washed for 3 times by FACS buffer. Then, cells were stained by Alexa Flu647 labeled anti-human IgG secondary antibody (Jackson ImmunoResearch, #109606170) or Alexa Flu647 labeled anti-mouse IgG secondary antibody (Jackson ImmunoResearch, #115605072) at 1:600 dilution in FACS buffer for 0.5 hour at 4° C. After washed for 3 times, Flow cytometry was performed to measure the binding.

cynomolgus CCR8 [11] = molecular target: T3, cynomolgus CCR8; test: FACS on HEK293-cynomolgus CCR8 cells; remark: listed apart in the source
Method: as §3

human CCR8 [12] = molecular target: T2, human CCR8; test: FACS, competition with AF647-human CCL1 on CHO-K1-human CCR8 cells; remark: listed apart in the source
human CCR8 [13] = molecular target: T2, human CCR8; test: FACS on HEK293-human CCR8 cells; remark: listed apart in the source
cynomolgus CCR8 [14] = molecular target: T3, cynomolgus CCR8; test: FACS on ExpiCHO-S-cynomolgus CCR8 cells
human CCR8 [15] = molecular target: T2, human CCR8; test: FACS, competition with AF647-human CCL1 on CHO-K1-human CCR8 cells; remark: listed apart in the source
human CCR8 [16] = molecular target: T2, human CCR8; test: FACS of purified scFv on CHO-K1-human CCR8 cells

T3 sequence (G7NYJ2 entry or part of it): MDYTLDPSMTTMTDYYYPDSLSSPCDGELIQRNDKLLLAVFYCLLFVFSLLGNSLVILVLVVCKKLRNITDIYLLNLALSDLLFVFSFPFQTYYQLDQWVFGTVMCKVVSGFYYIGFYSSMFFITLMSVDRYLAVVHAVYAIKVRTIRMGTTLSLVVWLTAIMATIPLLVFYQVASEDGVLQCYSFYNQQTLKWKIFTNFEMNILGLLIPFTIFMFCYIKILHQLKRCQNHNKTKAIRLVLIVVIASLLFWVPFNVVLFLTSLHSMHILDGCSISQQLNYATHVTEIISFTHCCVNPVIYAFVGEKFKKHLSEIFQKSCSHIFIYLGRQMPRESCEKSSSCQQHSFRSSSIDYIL

B1: Hu149-12G1 (antibody, human IgG1)
heavy: not shown
VL: DIVMTQSPLSLPVTPGEPASISCRSSKSLLHSNANTYLYWFLQKPGQSPQLLIYRMSNLASGVPDRFSGSGSGTDFTLKISRVEAEDVGVYYCMQHLEYPLTFGGGTKVELK
- EC50, ADCC reporter, F variant CD16a/NFAT-Jurkat, target CHO-K1-human CCR8 cells (human CCR8 [1]): 0.0598 nM
- EC50, ADCC reporter, F variant CD16a/NFAT-Jurkat, target HuT78 cells (human CCR8 [1]): 0.744 nM
- EC50, ADCC reporter, V variant CD16a/NFAT-Jurkat, target CHO-K1-human CCR8 cells (human CCR8 [1]): 0.043 nM
- EC50, ADCC reporter, V variant CD16a/NFAT-Jurkat, target HuT78 cells (human CCR8 [1]): 0.495 nM
- Max (RLU), ADCC reporter, F variant CD16a/NFAT-Jurkat, target CHO-K1-human CCR8 cells (human CCR8 [1]): 4.96e+06 RLU
- Max (RLU), ADCC reporter, F variant CD16a/NFAT-Jurkat, target HuT78 cells (human CCR8 [1]): 5.28e+06 RLU
- Max (RLU), ADCC reporter, V variant CD16a/NFAT-Jurkat, target CHO-K1-human CCR8 cells (human CCR8 [1]): 2.28e+06 RLU
- Max (RLU), ADCC reporter, V variant CD16a/NFAT-Jurkat, target HuT78 cells (human CCR8 [1]): 4.19e+06 RLU
- EC50, ADCC with human PBMCs, target CHO-K1-human CCR8 cells (human CCR8 [2]): 0.0113 nM
- Max specific lysis (%), ADCC with human PBMCs, target CHO-K1-human CCR8 cells (human CCR8 [2]): 36.4%

B2: 149F2C10 (antibody, V domains shown)
VH: EVQLVESGGGLVQPKGSLKLSCAASGFTFNTYAMNWVRQAPGKGLEWVARIRSKSNFYATYYADSVKDRFTISRDDSQDMLYLQMNILKTEDTAIYYCVRGRDYGSSYAMDYWGQGTSVTVSS
VL: DIVMTQAAPSVPVTPGESVSISCRSSKSLLHSNGNTYLYWFLQRPGQSPQLLIYRMSNLASGVPDRFSGSGSGTAFTLRISRVEAEDVGVYYCMQHLEYPLTFGAGTKLELK
notes: purified murine hybridoma antibody
- IC50, inhibition of CCL1 induced β-Arrestin recruitment (human CCR8 [3]): 0.61 nM
- Max Inhibition (%), CCL1 induced β-Arrestin recruitment (human CCR8 [3]): 32%
- EC50 (human CCR8 [4]): 0.173 nM
- Max MFI (human CCR8 [4]): 1930 MFI
- EC50 (cynomolgus CCR8 [5]): 0.145 nM
- Max MFI (cynomolgus CCR8 [5]): 3440 MFI
- IC50 (human CCR8 [6]): 0.917 nM
- Max Inhibition (%) (human CCR8 [6]): 98%
- IC50 (human CCR8 [7]): 0.733 nM
- Max Inhibition (%) (human CCR8 [7]): 96.4%
- IC50 (human CCR8 [8]): 0.97 nM
- Max Inhibition (%) (human CCR8 [8]): 79.4%

B3: 204A2G12 (antibody, V domains shown)
VH: DVQLQESGPGLVKPSQSLSLTCSVTGYSITSGYYWNWIRQFPGNKLEWMGYISYDGTNNYNPSLKNRISITRDTSKNQFFLKLTSVTTEDTATYYCARQVGLRRAWFAYWGQGTLVTVSA
VL: DIQMTQSSSFLSVSLGGRVTITCKASDHINYWLAWYQQKPGNAPRLLISGATSLETGVPSRFSGSGSGKDYTLTITSLQNEDVATYYCHQYWSTPTFGSGTKLEIK
notes: as for B2
- IC50, inhibition of CCL1 induced β-Arrestin recruitment (human CCR8 [3]): 1.7 nM
- Max Inhibition (%), CCL1 induced β-Arrestin recruitment (human CCR8 [3]): 30.9%
- IC50 (human CCR8 [6]): 2.73 nM
- Max Inhibition (%) (human CCR8 [6]): 95%
- IC50 (human CCR8 [7]): 1.64 nM
- Max Inhibition (%) (human CCR8 [7]): 87.6%

B4: Hu149-4 (antibody, human IgG1, V domains shown)
VH: EVQLVESGGGLVQPGGSLKLSCAASGFTFNTYAMNWVRQASGKGLEWVGRIRSKSNFYATYYAASVKGRFTISRDDSKNTAYLQMNSLKTEDTAVYYCTRGRDYGSSYAMDYWGQGTLVTVSS
VL: B1 VL
notes: humanized, human IgG1; also called Hu149-4 HuIgG1
- EC50, ADCC with human PBMC (human CCR8 [9]): 0.002 nM
- Max specific lysis (%), ADCC with human PBMC (human CCR8 [9]): 8.76%
- EC50 (human CCR8 [10]): 0.0518 nM
- Max MFI (human CCR8 [10]): 7470 MFI
- EC50 (cynomolgus CCR8 [11]): 0.081 nM
- Max MFI (cynomolgus CCR8 [11]): 26500 MFI
- IC50 (human CCR8 [12]): 0.137 nM
- Max Inhibition (%) (human CCR8 [12]): 99.5%

B5: CM348 (antibody, V domains shown)
VH: QVQLVETGGGLVRPGNSLKLSCVTSGFSFSNYRMHWLRQPPGKRLEWIAVITVKSDNYGANYAESVKGRFTISRDDSKSSVYLQMNRLREEDTATYYCSSLGRVAYWGQGTLVTVSA
VL: DIVMTQSQKFMFTSVGDRVSVTCKASQNVDTNVVWYQQKPGQSPKALIYSASSRYSGVPDRFTGSGSGTDFTLTISNVQSEDLAEYFCQQHNSFPLTFGAGTKLELI
notes: CM348 is not defined in words; also called CM348 HuIgG1; parental antibody CM348
- EC50, ADCC with human PBMC (human CCR8 [9]): 0.41 nM
- Max specific lysis (%), ADCC with human PBMC (human CCR8 [9]): 13.1%
- EC50 (human CCR8 [13]): 0.091 nM
- Max MFI (human CCR8 [13]): 5050 MFI
- EC50 (cynomolgus CCR8 [14]): 65.3 nM
- Max MFI (cynomolgus CCR8 [14]): 238 MFI
- IC50 (human CCR8 [15]): 0.17 nM
- Max Inhibition (%) (human CCR8 [15]): 96.4%

B6: 149-9 scFv (WT) (scFv)
scFv: EVQLVESGGGLVQPGGSLKLSCAASGFTFNTYAMNWVRQASGKGLEWVGRIRSKSNFYATAYAASVKGRFTISRDDSKNTAYLQMNSLKTEDTAVYYCTRGRDYGSSYAMDYWGQGTLVTVSSGGGGSGGGGSGGGGSDIVMTQSPLSLPVTPGEPASISCRSSKSLLHSNANTYLYWFLQKPGQSPQLLIYRMSNLASGVPDRFSGSGSGTDFTLKISRVEAEDVGVYYCMQHLEYPLTFGGGTKVELK
notes: VH-VL format with (G4S)3 linker
- GeoMean AF647 (RL1-H) of CHO-K1-human CCR8 / GeoMean AF647 (RL1-H) in H12(NC) (human CCR8 [16]): 2.2

B7: VH-PH5-P2B6(LCDR3) (scFv)
scFv: B6 scFv with E236K
- GeoMean AF647 (RL1-H) of CHO-K1-human CCR8 / GeoMean AF647 (RL1-H) in H12(NC) (human CCR8 [16]): 4.6

B8: VH-PH5-P3E3 (scFv)
scFv: B6 scFv with D103E, S107A
- GeoMean AF647 (RL1-H) of CHO-K1-human CCR8 / GeoMean AF647 (RL1-H) in H12(NC) (human CCR8 [16]): 3.6

B9: VH-PH5-P5F7 (scFv)
scFv: B6 scFv with D103E, S106R
- GeoMean AF647 (RL1-H) of CHO-K1-human CCR8 / GeoMean AF647 (RL1-H) in H12(NC) (human CCR8 [16]): 7.1

B10: VH-PH5-P7B9 (scFv)
scFv: B6 scFv with D103E
- GeoMean AF647 (RL1-H) of CHO-K1-human CCR8 / GeoMean AF647 (RL1-H) in H12(NC) (human CCR8 [16]): 10.4

B11: VH-PH5-P9E9 (scFv)
scFv: B6 scFv with R102K, D103E
- GeoMean AF647 (RL1-H) of CHO-K1-human CCR8 / GeoMean AF647 (RL1-H) in H12(NC) (human CCR8 [16]): 10.8

B12: VH-PH7-P2H12 (scFv)
scFv: B6 scFv with S41P
notes: also called VH-PH7-P2H12(S41P)
- GeoMean AF647 (RL1-H) of CHO-K1-human CCR8 / GeoMean AF647 (RL1-H) in H12(NC) (human CCR8 [16]): 6

B13: VL-PH5-P3E4 (scFv)
scFv: B6 scFv with E236R
- GeoMean AF647 (RL1-H) of CHO-K1-human CCR8 / GeoMean AF647 (RL1-H) in H12(NC) (human CCR8 [16]): 2.9

B14: VL-PH5-P5D9 (scFv)
scFv: B6 scFv with E236S
- GeoMean AF647 (RL1-H) of CHO-K1-human CCR8 / GeoMean AF647 (RL1-H) in H12(NC) (human CCR8 [16]): 3.2
